# Measurements taken from US20220175781A1, “CD40L COMPOSITIONS AND METHODS FOR TUNABLE REGULATION” (Obsidian Therapeutics, Inc., priority 2019, published 2022).
# Values joined by “and” are separate entries in the source; they are usually repeats but may differ in a detail not shown here. Identical values can stand only once.
# B1: OT-001662: CD40L construct with ecDHFR (M1del, R12Y, Y100I) DRD, ligand TMP (protein)
# chain: MSGISLIAALAVDYVIGMENAMPWNLPADLAWFKRNTLNKPVIMGRHTWESIGRPLPGRKNIILSSQPGTDDRVTWVKSVDEAIAACGDVPEIMVIGGGRVIEQFLPKAQKLYLTHIDAEVEGDTHFPDYEPDDWESVFSEFHDADAQNSHSYCFEILERRHMIETYNQTSPRSAATGLPISMKIFMYLLTVFLITQMIGSALFAVYLHRRLDKIEDERNLHEDFVFMKTIQRCNTGERSLSLLNCEEIKSQFEGFVKDIMLNKEETKKENSFEMQKGDQNPQIAAHVISEASSKTTSVLQWAEKGYYTMSNNLVTLENGKQLTVKRQGLYYIYAQVTFCSNREASSQAPFIASLCLKSPGRFERILLRAANTHSSAKPCGQQSIHLGGVFELQPGASVFVNVTDPSQVSHGTGFTSFGLLKL
# Key:
# T cells (CD4+ and CD8+) = assay: Regulation of CD40L in T cells by different drug responsive domains; assay type: cell-based
# [1] = system: T cells co-cultured with monocyte derived dendritic cells (mDC); assay: CD40L levels in T cells in mDC co-culture (FACS); assay type: cell-based; details: for % CD40L+ / CD40L MFI: mDC co-culture 2 days; for SR (based on %) / SR (based on MFI): stabilization ratio
# Text: In order to engage dendritic cells in an immune response, dendritic cells must be converted to a functional state by an antigen-specific CD4+ helper T cell. Activation of the dendritic cells may be followed by the activation of CD8+ T cells by the dendritic cells, a process referred to as dendritic cell licensing. Engagement of the CD40L expressed on the CD4+ cells with the CD40 on the dendritic cells can result in (i) dendritic cell stimulation-measured by expression of co-stimulatory and MHC molecules (ii) proinflammatory cytokine release (e.g. IL12, TNFα and INFγ) (iii) epitope spreading. To measure the effect of CD40L expression that is tuned by the biocircuits of the present disclosure, CD4+ T cells or Jurkat cells expressing any of the CD40L constructs described herein were co-cultured with dendritic cells.
# Dendritic cell function in response to co-culture with T cells expressing CD40L was evaluated in the presence of ligand or corresponding vehicle control. Monocyte derived dendritic cells (mDC) (CD14+) were isolated from fresh blood and cultured for 5 days with IL-4 (7.5 ng/mL) and GM-CSF (20 ng/mL). The mDCs were frozen down after the 5 day culture. T cells were transduced with OT-001662 and expanded for 9 days before being frozen down. mDCs and T cells were thawed and co-cultured 1:10 DC: T cell ratio (i.e. 5×10^4 DCs: 5×10^5 T cells). mDC and T cells were co-cultured for 2 days before cells were collected for flow cytometry and supernatants were collected for cytokine analysis. For evaluation of regulated constructs, ligand (various doses of TMP) was added at the time initiating the co-culture and was kept in the co-culture for 2 days. Cytokines were analyzed by MSD after a single freeze thaw cycle. All cells were cultured in complete RPMI with 10% FBS during the course of the experiment. SR indicates stabilization ratio.
# CD8+ T cells = assay: Ligand dose response, % CD40L positive cells, CD8+ T cells; assay type: cell-based
# Procedure: Ligand dose response curve experiments were performed with increasing doses of ligand using OT-001662 and OT-001666 constructs in both CD4+ as well as CD8+ T cells.
# The experiments were conducted using three different volumes of virus for transduction i.e. 0.5, 2 and 10 μL.
# [2] = system: T cells (CD4 and CD8 positive); assay: CD40L MFI in vitro in CD4 and CD8 positive T cells, 10 μM TMP; assay type: cell-based
# Procedure: T cells were transduced with OT-001662 and then treated with 10 μM TMP on day 4. CD40L expression was analyzed by FACS both in the CD4 and CD8 positive T cell populations.
# Jurkat cells = assay: DHFR regulated CD40L expression, transduced Jurkat cells (flow cytometry); assay type: cell-based
# Procedure: Jurkat cells were transduced with lentiviruses corresponding to OT-001662, OT-001962, OT-001961, OT-001963. 24 hours after transduction, cells were split and treated with DMSO or 50 μM TMP for another 24 hours until flow cytometry-based analysis. The results are shown in Table 37 where SR indicates stabilization ration.
# T cells = assay: % CD40L positive cells in vivo, transduced T cells in NSG mice dosed with TMP; parameters: species or system NSG female mice
# Procedure: Based on the in vitro data, regulatability of CD40L constructs in vivo was tested. 10-week old NSG female mice were injected with T cells transduced with one of the following constructs empty vector, OT-001661, and OT-001662 (day 0). On day 1, mice were pre-bled prior to dose with ligand. On day 2, mice were dosed every 4 hours with TMP at 500 mg/kg body weight of the mouse or vehicle control. Two hours after every dose, blood was collected from the mice to measure CD40L levels. On day 3, i.e. 24 hours after the first dose, mice were terminally bled for analysis. The values in bold represent the average values for each bleed.
molecule,measurement,setting,value
B1,CD40L positive,"T cells (CD4+ and CD8+); All Cells, 10 uM TMP",89.7%
same,MFI,"T cells (CD4+ and CD8+); All Cells, 10 uM TMP",2122
same,CD40L positive,"T cells (CD4+ and CD8+); All Cells, DMSO",7.6%
same,MFI,"T cells (CD4+ and CD8+); All Cells, DMSO",140
same,CD40L positive,"T cells (CD4+ and CD8+); CD4+, 10 uM TMP",94.4%
same,MFI,"T cells (CD4+ and CD8+); CD4+, 10 uM TMP",2608
same,CD40L positive,"T cells (CD4+ and CD8+); CD4+, DMSO",8.8%
same,MFI,"T cells (CD4+ and CD8+); CD4+, DMSO",152
same,CD40L positive,"T cells (CD4+ and CD8+); CD8+, 10 uM TMP",74.9%
same,MFI,"T cells (CD4+ and CD8+); CD8+, 10 uM TMP",1070
same,CD40L positive,"T cells (CD4+ and CD8+); CD8+, DMSO",91.8%
same,MFI,"T cells (CD4+ and CD8+); CD8+, DMSO",2.1
same,% CD40L+,"[1]; CD4+, DMSO",3.71%
same,CD40L MFI,"[1]; CD4+, DMSO",63.8
same,% CD40L+,"[1]; CD4+, TMP (0.1 μM)",4.32%
same,CD40L MFI,"[1]; CD4+, TMP (0.1 μM)",69.8
same,% CD40L+,"[1]; CD4+, TMP (0.5 μM)",3.34%
same,CD40L MFI,"[1]; CD4+, TMP (0.5 μM)",61.1
same,% CD40L+,"[1]; CD4+, TMP (2 μM)",78%
same,CD40L MFI,"[1]; CD4+, TMP (2 μM)",691
same,% CD40L+,"[1]; CD4+, TMP (10 μM)",84.1%
same,CD40L MFI,"[1]; CD4+, TMP (10 μM)",1379
same,SR (based on %),"[1]; CD4+, TMP (0.1 μM)",1.16
same,SR (based on MFI),"[1]; CD4+, TMP (0.1 μM)",1.09
same,SR (based on %),"[1]; CD4+, TMP (0.5 μM)",0.90
same,SR (based on MFI),"[1]; CD4+, TMP (0.5 μM)",0.96
same,SR (based on %),"[1]; CD4+, TMP (2 μM)",21.02
same,SR (based on MFI),"[1]; CD4+, TMP (2 μM)",10.83
same,SR (based on %),"[1]; CD4+, TMP (10 μM)",22.67
same,SR (based on MFI),"[1]; CD4+, TMP (10 μM)",21.61
same,% CD40L+,"[1]; CD8+, DMSO",0.47%
same,CD40L MFI,"[1]; CD8+, DMSO",57.8
same,% CD40L+,"[1]; CD8+, TMP (0.1 μM)",0.69%
same,CD40L MFI,"[1]; CD8+, TMP (0.1 μM)",61.5
same,% CD40L+,"[1]; CD8+, TMP (0.5 μM)",0.57%
same,CD40L MFI,"[1]; CD8+, TMP (0.5 μM)",54.5
same,% CD40L+,"[1]; CD8+, TMP (2 μM)",57.8%
same,CD40L MFI,"[1]; CD8+, TMP (2 μM)",419
same,% CD40L+,"[1]; CD8+, TMP (10 μM)",74.9%
same,CD40L MFI,"[1]; CD8+, TMP (10 μM)",951
same,SR (based on %),"[1]; CD8+, TMP (0.1 μM)",1.47
same,SR (based on MFI),"[1]; CD8+, TMP (0.1 μM)",1.06
same,SR (based on %),"[1]; CD8+, TMP (0.5 μM)",1.21
same,SR (based on MFI),"[1]; CD8+, TMP (0.5 μM)",0.94
same,SR (based on %),"[1]; CD8+, TMP (2 μM)",122.98
same,SR (based on MFI),"[1]; CD8+, TMP (2 μM)",7.25
same,SR (based on %),"[1]; CD8+, TMP (10 μM)",159.36
same,SR (based on MFI),"[1]; CD8+, TMP (10 μM)",16.45
same,Ligand dependent regulation of CD40L,"[1]; mDC-T cell co-culture 2 days, various doses of TMP, CD4 and CD8+ cells",Ligand dependent regulation of CD40L was evident
same,% CD40L positive cells,"CD8+ T cells; 0.5 μL virus, TMP 0.05 nM",0.16%
same,% CD40L positive cells,"CD8+ T cells; 0.5 μL virus, TMP 0.5 nM",0.17%
same,% CD40L positive cells,"CD8+ T cells; 0.5 μL virus, TMP 5 nM",0.12%
same,% CD40L positive cells,"CD8+ T cells; 0.5 μL virus, TMP 50 nM",0.19%
same,% CD40L positive cells,"CD8+ T cells; 0.5 μL virus, TMP 500 nM",0.66%
same,% CD40L positive cells,"CD8+ T cells; 0.5 μL virus, TMP 5000 nM",9.21%
same,% CD40L positive cells,"CD8+ T cells; 0.5 μL virus, TMP 50000 nM",25.2%
same,% CD40L positive cells,"CD8+ T cells; 2 μL virus, TMP 0.05 nM",0.2%
same,% CD40L positive cells,"CD8+ T cells; 2 μL virus, TMP 0.5 nM",0.34%
same,% CD40L positive cells,"CD8+ T cells; 2 μL virus, TMP 5 nM",0.3%
same,% CD40L positive cells,"CD8+ T cells; 2 μL virus, TMP 50 nM",0.64%
same,% CD40L positive cells,"CD8+ T cells; 2 μL virus, TMP 500 nM",6.84%
same,% CD40L positive cells,"CD8+ T cells; 2 μL virus, TMP 5000 nM",40.6%
same,% CD40L positive cells,"CD8+ T cells; 2 μL virus, TMP 50000 nM",51%
same,% CD40L positive cells,"CD8+ T cells; 10 μL virus, TMP 0.05 nM",0.95%
same,% CD40L positive cells,"CD8+ T cells; 10 μL virus, TMP 0.5 nM",1.08%
same,% CD40L positive cells,"CD8+ T cells; 10 μL virus, TMP 5 nM",1.02%
same,% CD40L positive cells,"CD8+ T cells; 10 μL virus, TMP 50 nM",1.07%
same,% CD40L positive cells,"CD8+ T cells; 10 μL virus, TMP 500 nM",5.53%
same,% CD40L positive cells,"CD8+ T cells; 10 μL virus, TMP 5000 nM",47.4%
same,% CD40L positive cells,"CD8+ T cells; 10 μL virus, TMP 50000 nM",59.4%
same,CD40L MFI in vitro,"[2]; CD4+, TMP (10 μM)",10159
same,CD40L MFI in vitro,"[2]; CD4+, Vehicle",348
same,CD40L MFI in vitro,"[2]; CD8+, TMP (10 μM)",4893
same,CD40L MFI in vitro,"[2]; CD8+, Vehicle",182
same,% CD40L expression,Jurkat cells; TMP (50 μM),90%
same,SR,Jurkat cells; TMP (50 μM) versus Vehicle,90
same,% CD40L expression,Jurkat cells; Vehicle (DMSO),1%
same,% CD40L positive cells in vivo,"T cells; 0 hours, average, TMP 500 mg/kg every 4 hours",1.0%
same,% CD40L positive cells in vivo,"T cells; 0 hours, average, Vehicle",0.9%
same,% CD40L positive cells in vivo,"T cells; 0 hours, individual values, TMP 500 mg/kg every 4 hours",0.9% (2×) and 0.4% and 1.8%
same,% CD40L positive cells in vivo,"T cells; 0 hours, individual values, Vehicle",0.8% and 0.9% and 0.1% and 1.8%
same,% CD40L positive cells in vivo,"T cells; 2 hours, average, TMP 500 mg/kg every 4 hours",8.6%
same,% CD40L positive cells in vivo,"T cells; 2 hours, average, Vehicle",0.9%
same,% CD40L positive cells in vivo,"T cells; 2 hours, individual values, TMP 500 mg/kg every 4 hours",11.8% and 13.0% and 9.6% and 0.0%
same,% CD40L positive cells in vivo,"T cells; 2 hours, individual values, Vehicle",0.6% and 1.0% and 0.0% and 1.9%
same,% CD40L positive cells in vivo,"T cells; 6 hours, average, TMP 500 mg/kg every 4 hours",19.9%
same,% CD40L positive cells in vivo,"T cells; 6 hours, average, Vehicle",0.3%
same,% CD40L positive cells in vivo,"T cells; 6 hours, individual values, TMP 500 mg/kg every 4 hours",22.1% and 25.7% and 13.8% and 18.0%
same,% CD40L positive cells in vivo,"T cells; 6 hours, individual values, Vehicle",0.3% and 0.4% and 0.5% and 0.2%
same,% CD40L positive cells in vivo,"T cells; 10 hours, average, TMP 500 mg/kg every 4 hours",20.1%
same,% CD40L positive cells in vivo,"T cells; 10 hours, average, Vehicle",0.1%
same,% CD40L positive cells in vivo,"T cells; 10 hours, individual values, TMP 500 mg/kg every 4 hours",26.0% and 21.4% and 0.0% and 33.1%
same,% CD40L positive cells in vivo,"T cells; 10 hours, individual values, Vehicle",0.0% (3×) and 0.3%
same,% CD40L positive cells in vivo,"T cells; 24 hours, average, TMP 500 mg/kg every 4 hours",12.0%
same,% CD40L positive cells in vivo,"T cells; 24 hours, average, Vehicle",0.6%
same,% CD40L positive cells in vivo,"T cells; 24 hours, individual values, TMP 500 mg/kg every 4 hours",1.2% and 0.8% and 18.9% and 27.2%
same,% CD40L positive cells in vivo,"T cells; 24 hours, individual values, Vehicle",0.0% and 0.3% and 1.4% and 0.7%
